Data published in paper PMC12632272.

What was measured:
[1] = target: T1, CRP (cAMP receptor protein) (Escherichia coli ATCC 25922) (UniProt P0ACJ8); test: competition; conditions: EMSA: 20 mM Tris (pH not stated), 10 mM MgCl2, 0.1 mM EDTA, 100 mM KCl, 200 uM cAMP, room temperature 15 min; 5% gel, 0.3x TBE, 150 V, 20 C
T1 sequence: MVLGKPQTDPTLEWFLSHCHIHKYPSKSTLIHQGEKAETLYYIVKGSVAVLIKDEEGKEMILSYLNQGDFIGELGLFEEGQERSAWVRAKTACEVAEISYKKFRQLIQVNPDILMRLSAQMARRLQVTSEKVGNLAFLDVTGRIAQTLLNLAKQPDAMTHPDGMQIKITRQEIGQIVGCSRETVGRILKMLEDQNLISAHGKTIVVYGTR

[2] = target: T1, CRP (cAMP receptor protein) (Escherichia coli ATCC 25922); test: EMSA; conditions: EMSA: 20 mM Tris (pH not stated), 10 mM MgCl2, 0.1 mM EDTA, 100 mM KCl, 200 uM cAMP, room temperature 15 min; 5% gel, 0.3x TBE, 150 V, 20 C

Sequence | binding [1] | binding [2]
CGCCTAAGTTTGCCCGTAATAATTCCCCGTGCAGTACTATTGTTGCGACATAACAACATGAATTACATGGTAATAATAGATGTTTTCCTCTGCTGATTCCTGTAAAGATCATGACTCCATACGACATCATTTTTAATATTATACAGTTCAAAAAATCTACATGTGTCACAAATAATTTTACATTTGATAATGTATAGTTGTCACATGACAAGTTGATTATCATTCTGTGTAGACAAGGAGAACTGTTATGACGGAT (double strand) [P1/2 unlabeled competitor] | binds | 
CGCCTAAGTTTGCCCGTAATAATTCCCCGTGCAGTACTATTGTTGCGACATAACAACATGAATTACATGGTAATAATAGATGTTTTCCTCTGCTGATTCCTGTAAAGATCATGACTCCATACGACATCATTTTTAATATTATACAGTTCAAAAAATCTACATGTGTCACAAATAATTTTACATTTGATAATGTATAGTTGTCACATGACAAGTTGATTATCATTCTGTGTAGACAAGGAGAACTGTTATGACGGAT (double strand) [P1/2 DHAP shunt promoter fragment] |  | binds
